Test results published in article PMC2806608.

Molecular target: human FcμR on BW5147 T cell transductants (human) (UniProt O60667)
Assay: radioligand binding

Chain of UniProt O60667 (O60667 17-390): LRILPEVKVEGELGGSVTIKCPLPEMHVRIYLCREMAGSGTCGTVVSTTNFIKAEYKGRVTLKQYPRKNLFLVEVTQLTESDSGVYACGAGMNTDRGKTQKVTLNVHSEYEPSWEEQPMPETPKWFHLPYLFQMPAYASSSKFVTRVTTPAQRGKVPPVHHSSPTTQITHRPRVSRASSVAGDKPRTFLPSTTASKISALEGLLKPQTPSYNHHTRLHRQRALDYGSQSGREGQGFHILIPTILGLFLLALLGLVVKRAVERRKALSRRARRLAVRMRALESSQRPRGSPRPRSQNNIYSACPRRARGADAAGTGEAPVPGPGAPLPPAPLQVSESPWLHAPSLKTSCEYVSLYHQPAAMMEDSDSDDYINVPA

Kd: 10.8 nM
Substance: ^125I-labeled human IgM myeloma protein (antibody)
